Consider four molecules from patent US20110300138A1 (published 2011).

Experiment [1] addresses TSHR with Lys129 mutated to Ala, expressed in CHO cells (human) (UniProt P16473). Put plainly: cell-based or functional assay.
The target of experiment [2] is wild type TSHR (human TSH receptor) expressed in CHO cells (human) (UniProt P16473). Put plainly: cell-based or functional assay.
Experiment [3] deals with TSHR (full length) coated on tubes (human) (UniProt P16473). The experiment is described as follows: inhibition of 125I-K1-18 Fab (competitor) binding to TSHR coated tubes; test sample 0.01 µg/mL in assay buffer.
In experiment [4] the target is TSHR (thyroid stimulating hormone receptor), full length human (human) (UniProt P16473). The experiment is described as follows: competitor ^125I-K1-70 IgG, TSHR coated tubes; 1 µg/mL in assay buffer.
The target of experiment [5] is full length wild type human TSHR (human) (UniProt P16473). Put plainly: TSHR260-AP bridge ELISA, wild type TSHR on wells; IgG at 0.5 µg/mL in HBD.
In experiment [6] the target is TSH receptor (full length human TSHR) (human) (UniProt P16473). Put plainly: competition ELISA: inhibition of M22 Fab-peroxidase (competitor) binding to TSHR coated wells; test sample at 1 µg/mL diluted in assay buffer.
Experiment [7] shares this target. Put plainly: competition ELISA: inhibition of M22 Fab-peroxidase (competitor) binding to TSHR coated wells; test sample at 1 µg/mL diluted in HBD serum pool.
In experiment [8] the target is human TSH receptor (full length) coated on ELISA plate wells (human) (UniProt P16473). Put plainly: TSH-biotin binding inhibition ELISA, TSHR coated wells; 100 µg/mL in HBD serum pool; negative control MAb.
In experiment [9] the target is TSHR (thyroid stimulating hormone receptor), full length human (human) (UniProt P16473). Put plainly: negative control; competitor ^125I-K1-70 IgG, TSHR coated tubes; 100 µg/mL in HBD.
In experiment [10] the target is human thyroid stimulating hormone receptor (TSHR), full length (human) (UniProt P16473). The experiment is described as follows: 125I-K1-70 Fab (competitor) binding to TSHR coated tubes; negative control MAb 100 µg/mL in assay buffer.
The target in experiment [11] is TSHR (thyroid stimulating hormone receptor), full length human (human) (UniProt P16473). The experiment is described as follows: negative control; competitor ^125I-K1-70 IgG, TSHR coated tubes; 10 µg/mL in assay buffer.
The target of experiment [12] is TSH receptor (TSHR), full length human, coated on tubes (human) (UniProt P16473). Put plainly: inhibition of 125I-K1-18 IgG binding to TSHR coated tubes; competitor 125I-K1-18 IgG; negative control sample at 100 µg/mL in HBD serum.
Experiment [13] addresses TSH receptor (full length human TSHR) (human) (UniProt P16473). Put plainly: competition ELISA: inhibition of M22 Fab-peroxidase (competitor) binding to TSHR coated wells; negative control at 0.01 µg/mL diluted in HBD serum pool.
The target in experiment [14] is human thyroid stimulating hormone receptor (TSHR), full length (human) (UniProt P16473). Put plainly: 125I-K1-70 Fab (competitor) binding to TSHR coated tubes; negative control MAb 100 µg/mL in HBD serum.
The target in experiment [15] is thyroid stimulating hormone receptor (TSHR), full length human TSHR (human) (UniProt P16473). Put plainly: TSH-biotin competition ELISA, TSHR coated wells; negative control, 0.1 µg/mL in HBD serum.
Experiment [16] addresses TSHR (full length) coated on tubes (human) (UniProt P16473). The experiment is described as follows: inhibition of 125I-K1-18 Fab (competitor) binding to TSHR coated tubes; negative control 0.1 µg/mL in HBD serum.
Experiment [17] has as its target TSH receptor (TSHR) coated on tubes (human) (UniProt P16473). Put plainly: inhibition of 125I-K1-70 IgG binding to TSHR coated tubes; negative control 0.001 µg/mL in assay buffer.
Experiment [18] concerns the target TSHR (thyroid stimulating hormone receptor), full length human (human) (UniProt P16473). The experiment is described as follows: negative control; competitor ^125I-K1-70 IgG, TSHR coated tubes; 100 µg/mL in assay buffer.
In experiment [19] the target is TSH receptor (full length human TSHR) (human) (UniProt P16473). Put plainly: competition ELISA: inhibition of M22 Fab-peroxidase (competitor) binding to TSHR coated wells; negative control at 10 µg/mL diluted in HBD serum pool.
Experiment [20] deals with TSH receptor (TSHR) coated on tubes (human) (UniProt P16473). The experiment is described as follows: inhibition of 125I-K1-70 IgG binding to TSHR coated tubes; sample 100 µg/mL in assay buffer.
For experiment [21], the target named is thyroid stimulating hormone receptor (full length human TSHR) (human) (UniProt P16473). The experiment is described as follows: ELISA, inhibition of TSH-biotin binding to TSHR coated wells; 10 µg/mL, diluted in HBD serum pool.
For experiment [22] the target is unchanged. Put plainly: ELISA, inhibition of TSH-biotin binding to TSHR coated wells; 1 µg/mL, diluted in assay buffer.
Experiment [23] addresses human TSH receptor (full length) coated on ELISA plate wells (human) (UniProt P16473). The experiment is described as follows: TSH-biotin binding inhibition ELISA, TSHR coated wells; 1 µg/mL in assay buffer + 100 µg/mL 5B3 IgG.
Experiment [24] concerns the target human thyroid stimulating hormone receptor (TSHR), full length (human) (UniProt P16473). The experiment is described as follows: 125I-K1-18 Fab competition, TSHR coated tubes; 1 µg/mL in HBD.
The target is the same in experiment [25]. Put plainly: 125I-K1-18 Fab competition, TSHR coated tubes; 0.1 µg/mL in HBD.
The target of experiment [26] is human TSH receptor (full length) coated on ELISA plate wells (human) (UniProt P16473). Put plainly: TSH-biotin binding inhibition ELISA, TSHR coated wells; 0.1 µg/mL in assay buffer.

For the molecule TSH (ligand), in experiment [1], the Cyclic AMP produced, mutated TSHR, TSH 0.01 ng/mL was 2.69 pmol/mL; the Cyclic AMP produced, mutated TSHR, TSH 0.03 ng/mL amounted to 5.34 pmol/mL; the Cyclic AMP produced, mutated TSHR, TSH 0.1 ng/mL turned out to be 12.7 pmol/mL; the Cyclic AMP produced, mutated TSHR, TSH 0.3 ng/mL came to 29 pmol/mL. In experiment [1], this molecule gave a Cyclic AMP produced, mutated TSHR, TSH 1 ng/mL of 40.8 pmol/mL; a Cyclic AMP produced, mutated TSHR, TSH 3 ng/mL of 48.5 pmol/mL; a Mutated/Wild type (%) of cyclic AMP produced, TSH 0.01 ng/mL of 134%; a Mutated/Wild type (%) of cyclic AMP produced, TSH 0.03 ng/mL of 161%. In experiment [1], this molecule displayed a Mutated/Wild type (%) of cyclic AMP produced, TSH 0.1 ng/mL of 131%; a Mutated/Wild type (%) of cyclic AMP produced, TSH 0.3 ng/mL of 111%; a Mutated/Wild type (%) of cyclic AMP produced, TSH 1 ng/mL of 88%; a Mutated/wild type (%) of cyclic AMP produced; TSH 3 ng/mL of 101%. Moreover, in [2], the Cyclic AMP produced, wild type TSHR, TSH 0.01 ng/mL came to 2.01 pmol/mL; the Cyclic AMP produced, wild type TSHR, TSH 0.03 ng/mL worked out at 3.32 pmol/mL; the Cyclic AMP produced, wild type TSHR, TSH 0.1 ng/mL was 9.69 pmol/mL; the Cyclic AMP produced, wild type TSHR, TSH 0.3 ng/mL was determined as 26.1 pmol/mL. In experiment [2], this molecule showed a Cyclic AMP produced, wild type TSHR, TSH 1 ng/mL of 46.3 pmol/mL and a Cyclic AMP produced, wild type TSHR, TSH 3 ng/mL of 48.1 pmol/mL.

For 9D33 IgG (antibody), the Inhibition of binding (%) in experiment [3] amounted to 7.9%; in [4], 37.2%; in experiment [6], 60.1%; in [7], 57.8%. The Mean absorbance at 405 nm (absorbance at 405 nm) in experiment [5] is 0.273.

Consider 5B3 IgG (antibody), for which the % inhibition of TSH-biotin binding in experiment [8] is 10.9%. Besides, the Inhibition of binding (%) in experiment [9] is -0.9%; in [10], 1.4%; in [11], 2.3%; in experiment [12], 29.4%; in experiment [13], 4.3%; in [14], -8.6%. Also, the Inhibition of binding (%) is -1.2% in experiment [15]; -8.3% in [16]; -1.5% in experiment [17]; 1.3% in [18]; 4.9% in experiment [19].

B1: 5C9 IgG (antibody, from another filing, V domains shown)
VH: EVQLVESGGGLIQPGGSLRLSCAASGFTVSSNYMSWVRQAPGKGLEWVSVTYSGGSTSYADSVKGRFTISRDNSKNTLYLQMNSLRAEDTAVYYCARGGRYCSSISCYARSGCDYWGQGTLVTVSS
VL: AIQMTQSPSSLSASVGDRVTITCRASQSISNYLNWYQQKPGKAPKLLIYAASSLQSGVPSRFSGSGSGTDFTLTISSLQPEDFATYYCQQSYSSPSTTFGQGTKLEIK
On to B1, for which the Inhibition of binding (%) amounted to 93.3% in [20]; 37.4% in experiment [21]; 31.4% in experiment [22]; 23.2% in experiment [24]; 6.3% in experiment [25]. Further, the % inhibition of TSH-biotin binding in experiment [23] came out at 46.7%; in [26] it was 34.9%.
